From CN109384844A (INST OF BASIC MEDICAL SCIENCES THE ACADEMY OF MILITARY …, dated 2019) come the findings set out here.

In experiment [1] the target is T1, Hla蛋白 (Staphylococcus aureus).
The target in experiment [2] is T1, Hla蛋白. This is another data set of the same source.

T1 sequence (Q2G1X0 27-319 limits assumed): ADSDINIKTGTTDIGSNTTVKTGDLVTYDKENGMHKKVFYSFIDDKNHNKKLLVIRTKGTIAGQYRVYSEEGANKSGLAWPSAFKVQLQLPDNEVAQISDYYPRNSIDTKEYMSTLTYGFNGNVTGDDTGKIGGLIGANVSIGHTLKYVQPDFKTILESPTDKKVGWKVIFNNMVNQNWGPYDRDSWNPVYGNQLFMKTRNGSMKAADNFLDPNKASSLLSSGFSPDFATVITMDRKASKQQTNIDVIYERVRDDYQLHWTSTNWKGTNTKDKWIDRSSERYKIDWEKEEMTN

B1: AAH-1抗体 (antibody, V domains shown)
VH: QMQLVQSGAEIRRPGSLVKVSCQASGGSFKNFALNWVRQAPGLGLQWMGSITPFLNVPTYAQQFQGRVTMSTDTSTSTAYMVLRRLTSDDTAVYYCARGNSLLDYWGQGTLVTVSS
VL: EIVLTQSPATLSVSPGDGATLSCRASQSVSGNLAWYQKKPGQAPRLLIYDTSIRAAGVPPRFSGSGSGTEFTLTISSLQSEDFAVYYCQQYHNLPPLTFGPGTKLEIK
By Kd is commonly meant the equilibrium constant for the complex coming apart. Lower therefore signals higher affinity. Broadly, the koff is the rate constant with which the complex falls apart. The kon is the second-order rate constant of association. Read a high kon as faster complex formation. The EC50 is the concentration giving half of the maximal effect. A high value points to a need for much substance. In the experiment with Hla蛋白 [1], B1 yielded a Kd of 1.92 nM, an off-rate constant (koff) of 0.000255 s⁻¹ and a kon of 133000 M⁻¹ s⁻¹. This molecule also returned an EC50 with Hla蛋白 [2] of 0.075 µg/mL.
